B1: Dup-scFv with HDEL (single-chain variable fragment of dupilumab produced by Nicotiana benthamiana) (scFv, V domains shown)
VH: EVQLVESGGGLEQPGGSLRLSCAGSGFTFRDYAMTWVRQAPGKGLEWVSSISGSGGNTYYADSVKGRFTISRDNSKNTLYLQMNSLRAEDTAVYYCAKDRLSITIRPRYYGLDVWGQGTTVTVSS
VL: DIVMTQSPLSLPVTPGEPASISCRSSQSLLYSIGYNYLDWYLQKSGQSPQLLIYLGSNRASGVPDRFSGSGSGTDFTLKISRVEAEDVGFYYCMQALQTPYTFGQGTKLEIK
notes: VH region of dupilumab; linker, printed as (GGGGS)4 / 4 x G4S; VL region of dupilumab; The form without HDEL is GenBank PP711327; also called dupilumab-scFv; source: N. benthamiana leaves, Agrobacterium-mediated transient expression with p19, purified (Ni-NTA); not shown: His6, C-terminal, kept
B2: Dupilumab (antibody, V domains shown)
VH: B1 VH
VL: B1 VL
notes: heavy chain of dupilumab (IgG4); light chain of dupilumab; IgG4 subclass monoclonal antibody (developed by Regeneron/Sanofi)

What was measured:
[1] = biological target: T1, Human IL-4Rα overexpressed on HEK293T cells (Homo sapiens (Human)., UniProt P24394); assay: cell-based or functional assay
Biotinylated IL-4Rα = biological target: T2, Biotinylated IL-4Rα (Homo sapiens (assumed), UniProt P24394, biotin); assay: SPR; iMSPR-ProX; biotinylated IL-4Rα immobilised on the sensor chip (A-Dex100) at 169.7 RU; Dup-scFv at 1.56-100 nM; regeneration with 10 mM glycine-HCl pH 1.5; 1:1 kinetic binding model; details: both partners purified
T2 construct: IL-4 receptor alpha (IL-4Rα); Probably a soluble extracellular construct of the human receptor (surmised); also called IL-4Ra; immobilized IL-4Rα

[2] = biological target: T1, Human IL-4Rα overexpressed on HEK293T …; assay: flow cytometry on cells; human IL-4Rα-overexpressing HEK293T cells, 2x10^5 cells/tube in PBS; seven-point curve; Dup-scFv detected with anti-6xHIS antibody and Alexa Fluor-647 anti-mouse IgG, dupilumab with Alexa Fluor-647 anti-human IgG; fitted in GraphPad Prism 8; details: one partner purified

T1 sequence (P24394 26-825): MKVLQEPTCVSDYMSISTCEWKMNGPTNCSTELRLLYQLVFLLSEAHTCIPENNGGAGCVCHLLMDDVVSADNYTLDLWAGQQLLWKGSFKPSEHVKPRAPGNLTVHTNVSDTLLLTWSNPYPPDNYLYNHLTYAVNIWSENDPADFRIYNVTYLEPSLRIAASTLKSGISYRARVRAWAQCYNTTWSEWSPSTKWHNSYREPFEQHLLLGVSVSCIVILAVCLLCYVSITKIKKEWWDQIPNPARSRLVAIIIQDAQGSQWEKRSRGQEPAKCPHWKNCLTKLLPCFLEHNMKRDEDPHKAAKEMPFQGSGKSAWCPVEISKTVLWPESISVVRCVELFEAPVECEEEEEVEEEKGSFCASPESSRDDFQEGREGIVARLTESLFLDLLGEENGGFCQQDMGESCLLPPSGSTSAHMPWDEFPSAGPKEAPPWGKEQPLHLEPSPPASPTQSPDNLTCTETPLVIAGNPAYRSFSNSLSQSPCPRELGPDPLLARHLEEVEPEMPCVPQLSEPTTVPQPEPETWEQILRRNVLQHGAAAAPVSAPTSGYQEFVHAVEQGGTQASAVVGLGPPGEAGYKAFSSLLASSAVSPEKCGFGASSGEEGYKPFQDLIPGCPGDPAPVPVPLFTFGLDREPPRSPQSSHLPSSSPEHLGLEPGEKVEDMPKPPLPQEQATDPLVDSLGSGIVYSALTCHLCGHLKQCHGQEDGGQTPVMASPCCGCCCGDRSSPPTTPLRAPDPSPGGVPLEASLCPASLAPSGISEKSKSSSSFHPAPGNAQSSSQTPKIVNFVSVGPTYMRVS
T2 sequence (P24394 26-825): as above

Binder | IL-4-induced CCL26 mRNA (qPCR; more than 3000-fold with IL-4 alone) in HNECs with Dup-scFv 20 μg/ml on the apical side [1] | Kd (Biotinylated IL-4Rα) | EC50 [2] | IL-4-induced CCL26 mRNA (qPCR; more than 3000-fold with IL-4 alone) in HNECs with dupilumab 100 μg/ml on the apical side [1]
B1 | 1790 fold | 0.476 nM | 17.3 nM | –
B2 | – | 0.133 nM | 1.02 nM | 2200 fold
